Results as given in article PMC5953937.

Target: lipin 1 (UniProt Q14693)
Experiment: co-immunoprecipitation (presumed)
Conditions: reference: wild-type Tip60; sites S86

- binding against the reference: weaker
Substance: Tip60 (from UniProt Q92993) S86A-Tip60
